Legend:
Type in all cases: biochemical
[1] = biological target: T1, Abl1-T315I (Homo sapiens, UniProt P00519, T315I); assay: Electrochemical (CV) Fc-ATP phosphorylation assay, substrate peptide immobilized on gold microelectrode, Abl1-T315I; details: for phosphorylation of immobilized peptide by Abl1-T315I (anodic current response): control peptides, HeLa cell lysate, FIG. 12C
T1 construct: purchased Cell Signalling Technology (MA, USA)
Experimental: (§1) The covalent immobilization of substrate peptides on the gold microelectrode surface using succinimide-esters of lipoic acid included the following steps: (a) incubation of the bare gold microelectrode with 5 mM NHS-lipoic acid ester in ethanol for 15 h; (b) incubation of the N-Hydroxysuccinimide (NHS)-lipoic acid-modified surface with the substrate peptides in the presence of 2 mM N-(3-Dimethylaminopropyl)-N′-ethylcarbodiimide (EDC) in 0.1 M 2-(N-Morpholino) ethanesulfonic acid (MES, pH 6) for 2 h, (c) incubation of the peptide-modified electrodes with Mercaptopolyethylene glycol 5′000 monomethyl ether (PEG-thiol 5′000) solution (1:100 v/v) in ethanol for 10 min.
Abl1-T315I kinase assay buffer included 60 mM HEPES (pH 7.5), 5 mM MgCl2, 5 mM MnCl2, 3 μM Na3VO4, 400 μM ATP, peptide substrate (STP) and the kinase in a total reaction volume of 25 μL. Purified recombinant human Abl1-T315I mutant kinase and its substrate peptide Signal Transduction Protein (STP, EGIYDVP) were purchased from Cell Signalling Technology (MA, USA). The substrate peptide modified electrodes were incubated at 37° C. for 2 h. After following the same washing procedures as for CK2, the CV measurements were recorded using the same parameters as described above.
(§2) The electrochemical data from the CV measurements are obtained as charge density (J) per test. […] Here, the detailed description of the calculation procedure will be given for CK2-catalysed phosphorylation reactions. The reaction volume is 25 μL, which leads to 2.5 nmole Fc-ATP per test. Then, the specific electro-activity (SE) of Fc-ATP (J/nmole Fc-ATP) would be calculated as follows: […]
(§3) where V is the rate, V0 is the rate in the absence of the inhibitor, [I] is the inhibitor concentration and Ki′ is the apparent inhibition constant.
(§4) where [S] is the surface density of the immobilized substrate peptide and Km is the Michaelis-Menten constant. The surface density conditions of the immobilized substrate peptide were changed between 1, 5, 10, 15 and 20 pmol/cm2. The initial time dependence of the kinase reactions were determined at these varying peptide density conditions. The phosphorylation reaction was stopped after 5, 15, 30, 60, 90, 120 and 150 min, and the measurement of the attached Fc molecules was carried out. […] If the y is set for 0 and the equation is solved for x, x intercept becomes equal to −1/Km.

[2] = biological target: T2, HER2/ErbB2 (Homo sapiens, UniProt P04626); assay: Electrochemical (CV) Fc-ATP phosphorylation assay, substrate peptide immobilized on gold microelectrode, HER2/ErbB2; details: for phosphorylation of immobilized peptide by HER2/ErbB2 (anodic current response): control peptides, FIG. 13C
T2 construct: purchased Cell Signalling Technology (MA, USA)
Experimental: as §1
(§5) The electrochemical data from the CV measurements are obtained as charge density (J) per test. The concentration of Fc-ATP for the kinase activity determinations was 100 μM, for CK2 and 200 μM for Abl1-T315I and HER2-ErbB2. Here, the detailed description of the calculation procedure will be given for CK2-catalysed phosphorylation reactions. The reaction volume is 25 μL, which leads to 2.5 nmole Fc-ATP per test. Then, the specific electro-activity (SE) of Fc-ATP (J/nmole Fc-ATP) would be calculated as follows: […]
(§6) The apparent inhibition constants Ki′ were determined by fitting equation (3) to the experimental data.
(§7) where V is the rate, V0 is the rate in the absence of the inhibitor, [I] is the inhibitor concentration and Ki′ is the apparent inhibition constant. The true inhibition constants Ki were calculated by correction of Ki′ according to Equation (4): […]
as §4

[3] = biological target: CK2α′ (Homo sapiens, UniProt P19784); assay: Electrochemical (CV) Fc-ATP phosphorylation assay, substrate peptide immobilized on gold microelectrode, CK2α′
Experimental: as §1
(§8) The substrate peptide modified electrodes were incubated at 37° C. for 2 h.
as §5, §6, §7, §4

[4] = biological target: CK2α (Homo sapiens, UniProt P68400); assay: Electrochemical (CV) Fc-ATP phosphorylation assay, substrate peptide immobilized on gold microelectrode, CK2α
Experimental: as §1, §8, §2, §3, §4

[5] = HER2/ErbB2, immobilized substrate peptide, Lineweaver-Burk
[6] = Abl1-T315I, immobilized substrate peptide, Lineweaver-Burk
[7] = CK2α′, immobilized substrate peptide, Lineweaver-Burk

Chain of CK2α (P68400 whole entry): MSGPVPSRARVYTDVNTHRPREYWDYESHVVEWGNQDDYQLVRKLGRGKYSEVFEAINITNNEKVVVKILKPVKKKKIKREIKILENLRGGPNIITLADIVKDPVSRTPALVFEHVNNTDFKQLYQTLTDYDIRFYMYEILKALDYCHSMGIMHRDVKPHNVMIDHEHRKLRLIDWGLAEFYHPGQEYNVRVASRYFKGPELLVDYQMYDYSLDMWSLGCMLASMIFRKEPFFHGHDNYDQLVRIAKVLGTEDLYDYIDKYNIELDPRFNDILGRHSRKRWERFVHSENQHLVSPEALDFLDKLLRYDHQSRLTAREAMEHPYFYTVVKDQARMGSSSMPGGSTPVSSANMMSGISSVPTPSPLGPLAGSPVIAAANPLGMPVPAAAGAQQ
Chain of CK2α′ (P19784 whole entry): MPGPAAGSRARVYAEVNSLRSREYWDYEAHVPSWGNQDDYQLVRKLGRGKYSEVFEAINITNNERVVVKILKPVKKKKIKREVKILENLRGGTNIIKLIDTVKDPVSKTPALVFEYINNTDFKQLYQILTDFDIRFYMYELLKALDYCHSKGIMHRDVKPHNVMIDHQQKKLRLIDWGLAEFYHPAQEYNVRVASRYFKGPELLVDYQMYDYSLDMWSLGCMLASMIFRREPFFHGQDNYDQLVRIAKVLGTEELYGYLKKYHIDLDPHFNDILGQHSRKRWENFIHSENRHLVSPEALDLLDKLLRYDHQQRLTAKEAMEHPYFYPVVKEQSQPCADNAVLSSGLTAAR

In the case of `Brc1c(Br)c(Br)c2[nH]nnc2c1Br` [(1), 4,5,6,7-Tetrabromo-2-azabenzimidazole], the “inhibition of EGIYDVP phosphorylation (specificity control)” value ([1]; EGIYDVP peptide exposed to inhibitor, FIG. 11C-b) is reported as “not inhibited”.
For “DNEYFYV [FLT3 substrate peptide for HER2/ErbB2]”, the Vmax/Kmax ([2]; HER2/ErbB2, immobilized substrate peptide) was 7.41, the Km [2, 5] was 208 µM and the Vmax [2, 5] was 1.54 µmol/min/mg. The “phosphorylation of immobilized peptide by Abl1-T315I (anodic current response)” value [1] was “Low current responses”.
With “EGIYDVP [Abl1-T315I substrate peptide Signal Transduction Protein]” the “phosphorylation of immobilized peptide by CK2 (current response)” value ([3]; control peptide in presence of cell lysate, FIG. 10B-c) was “did not catalyze phosphorylation”, the “phosphorylation of immobilized peptide by HER2/ErbB2 (anodic current response)” value [2] was “slight increase in the current responses” and the Vmax/Kmax ([1]; Abl1-T315I, immobilized substrate peptide) was 9.18. For the same compound, the Km [1, 6] was 182 µM and the Vmax [1, 6] was 1.67 µmol/min/mg.
Work on RRRDDDSDDD [CK2 peptide substrate] yielded a Vmax/Kmax ([3]; CK2α′, immobilized substrate peptide) of 18.16, a Km [3, 7] of 98 µM and a Vmax [3, 7] of 1.78 µmol/min/mg. The Vmax/Kmax [4] was 22.64, the Km ([4]; Lineweaver-Burk) was 87 µM and the Vmax ([4]; Lineweaver-Burk) was 1.97 µmol/min/mg. The “phosphorylation of immobilized peptide by HER2/ErbB2 (anodic current response)” value [2] was “did not catalyze phosphorylation”, the “phosphorylation of immobilized peptide by Abl1-T315I (anodic current response)” value [1] was “did not catalyze phosphorylation” and the “phosphorylation of immobilized peptide by Abl1-T315I (anodic current response)” value ([1]; listed as CK2 substrate peptide) was “No significant current responses”.

— patent publication US20110218114A1, “NUCLEOTIDE TRIPHOSPHATE WITH AN ELECTROACTIVE LABEL CONJUGATED TO THE GAMMA PHOSPHATE” (priority 2007, published 2011)
